The target of experiment [1] is human FcγRIIIa-158V-GST (dimeric GST-fused form) (human).
Experiment [2] concerns the target hFcRn-SA-Alexa 488, P55899;P61769. Description: flow cytometry (FACS) of E. coli spheroplasts displaying Fc. Conditions: 40 nM hFcRn-SA-Alexa 488, read off a plot. (In flow cytometry, cells or beads pass a laser one at a time.)
Experiment [3] has as its target human complement C1q (human) (UniProt P02745).
Experiment [4] concerns the target trastuzumab-LS (M428L/N434S) (human). Description: SPR; Biacore T200; HER2 amine-coupled on a CM5 chip (~3000 RU), trastuzumab-Fc variants captured on it (~300 RU), hFcRn injected at 1000, 500, 250, 125 and 62.5 nM in PBS (printed '10x') with 0.05% Tween 20, pH 6.0, 50 μl/min; 1:1 binding model; 'Steady state' for trastuzumab with wild-type Fc.
Experiment [5] concerns the target trastuzumab-PFc29 (Q311R/M428L) (human). The description is as above.
Experiment [6] has as its target trastuzumab (wild-type Fc, prepared in-house) (human). Described as above.
Experiment [7] deals with trastuzumab-YTE (M252Y/S254T/T256E) (human). The description is as above.
In experiment [8] the target is trastuzumab-PFc41 (L309G/M428L) (human). Described as above.
In experiment [9] the target is PFc41 (L309G/M428L) Fc variant displayed on the E. coli inner membrane (human). In words: flow cytometry on cells; single clones rescued from the fourth round of screening, Fc displayed on E. coli spheroplasts, fluorescent hFcRn probe; screening at pH 5.8, pH of the clone analysis not stated; mean fluorescence intensity.
Experiment [10] concerns the target PFc29 (Q311R/M428L) Fc variant displayed on the E. coli inner membrane (human). The description is as above.
The target of experiment [11] is EFc41 (P228L/L234F/E269D/Q342L/E388D/T394A/M428L) Fc variant displayed on the E. coli inner membrane (human). Described as above.
Where [12] appears, read: pH 5.8 in the image key (pH 6.0 in the legend), parent: est. 300.

Chain of human FcγRIIIa-158V-GST (dimeric GST-fused form) (human) (P08637 17-208): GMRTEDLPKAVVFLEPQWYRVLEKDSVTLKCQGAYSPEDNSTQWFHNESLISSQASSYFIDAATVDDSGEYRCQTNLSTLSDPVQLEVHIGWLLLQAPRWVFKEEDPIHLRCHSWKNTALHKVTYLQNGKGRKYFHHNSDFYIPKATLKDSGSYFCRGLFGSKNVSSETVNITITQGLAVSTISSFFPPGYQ
Chain of UniProt P02745 (P02745 23-245, chain 1 of 3): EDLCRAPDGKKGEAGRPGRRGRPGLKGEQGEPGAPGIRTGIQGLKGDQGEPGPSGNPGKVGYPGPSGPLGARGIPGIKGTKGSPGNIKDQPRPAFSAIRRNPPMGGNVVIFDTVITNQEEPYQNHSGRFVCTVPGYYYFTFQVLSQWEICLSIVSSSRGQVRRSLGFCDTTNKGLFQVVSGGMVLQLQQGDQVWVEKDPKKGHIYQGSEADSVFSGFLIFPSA
Chain of UniProt P02745 (P02746 28-253, chain 2 of 3, further chain): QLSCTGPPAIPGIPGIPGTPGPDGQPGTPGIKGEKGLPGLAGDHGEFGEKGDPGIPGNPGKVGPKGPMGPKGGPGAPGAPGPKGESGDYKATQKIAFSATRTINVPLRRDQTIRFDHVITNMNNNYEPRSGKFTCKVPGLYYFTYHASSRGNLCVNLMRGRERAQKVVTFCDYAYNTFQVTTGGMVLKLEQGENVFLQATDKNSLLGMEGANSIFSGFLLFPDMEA
Chain of UniProt P02745 (P02747 29-245, chain 3 of 3, further chain): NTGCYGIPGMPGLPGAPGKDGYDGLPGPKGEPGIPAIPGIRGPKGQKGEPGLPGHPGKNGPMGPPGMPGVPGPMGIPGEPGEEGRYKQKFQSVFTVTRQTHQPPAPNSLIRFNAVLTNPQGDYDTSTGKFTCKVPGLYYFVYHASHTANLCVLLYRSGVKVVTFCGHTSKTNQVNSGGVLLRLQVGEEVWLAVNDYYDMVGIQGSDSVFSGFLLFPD

For the substance “trastuzumab-PFc29 (Q311R/M428L) (antibody)”, the EC50 of ADCC (ADCC Reporter Bioassay; SKBR-3 target cells, FcγRIIIa-158V-expressing engineered Jurkat effector cells; luminescence) in experiment [1] came out at 0.051 µg/mL.
Regarding “wild-type Fc displayed on the E. coli inner membrane Q311R; M428L”, the response in experiment [2] (pH 7.4, parent: est. 30) was determined as 80 MFI.
In [1], “trastuzumab (wild-type Fc, prepared in-house) (antibody)” gave an EC50 of ADCC (ADCC Reporter Bioassay; SKBR-3 target cells, FcγRIIIa-158V-expressing engineered Jurkat effector cells; luminescence) of 0.12 µg/mL.
Consider “wild-type Fc displayed on the E. coli inner membrane M428L”, for which the response worked out at 430 MFI in experiment [2] (setting [12]) and 70 MFI in [2] (pH 7.4, parent: est. 30).
Regarding “rituximab (wild-type Fc, prepared in-house) (antibody)”, the EC50 of CDC (lysis of Raji cells with normal human complement) in experiment [3] is 0.33 µg/mL.
With trastuzumab-LS (M428L/N434S) (antibody), the EC50 of ADCC (ADCC Reporter Bioassay; SKBR-3 target cells, FcγRIIIa-158V-expressing engineered Jurkat effector cells; luminescence) in experiment [1] came out at 0.061 µg/mL.
Take “wild-type Fc displayed on the E. coli inner membrane Q311R”: the response in experiment [2] (setting [12]) was determined as 280 MFI; in experiment [2] (pH 7.4, parent: est. 30) it was 40 MFI.
A word on the Kd: it is a measure of binding affinity in units of concentration. Regarding “monomeric human FcRn (human FcRn α chain-His complexed with human β2-microglobulin) (from UniProt P55899 24-297; P61769 21-119)”, the Kd came out at 0.0816 µM in experiment [4]; 0.149 µM in [5]; 0.647 µM in experiment [6]; 0.147 µM in [7]; 0.198 µM in experiment [8].
As to “Alexa 488-labelled hFcRn probe (FcRn-GST or FcRn-streptavidin) (from UniProt P55899 24-297; P61769 21-119) (complex)”, the MFI in experiment [9] is 1910; in experiment [10], 1180; in experiment [11], 862.

Source of the values: paper PMC9628495.
